According to US20100081799A1, “Chelating Agent” (priority 2006, published 2010):

What was measured:
in vivo = experiment: in vivo; design: species or system mice; conditions: female, nude, mouse, iv, 38 uCi, total radioactivity
Method: (§1) Animal experiments. Due to its high sst2-somatostatin receptor expression, the rat pancreatic tumor cell line AR42J was used as a tumor model.^55 To establish tumor growth, cells were detached from the surface of the culture flasks using 1 mM EDTA in PBS, centrifuged and re-suspended in serum-free culture medium (RPMI-1640, Biochrom, Berlin, Germany). Concentration of the cell suspension was 3.7×10^6 cells/100 μL serum. Nude mice (female, 6-8 weeks) were injected 100 μL of the cell suspension subcutaneously into the flank.
(§2) For biodistribution studies, mice were intravenously injected 38 μCi [^68Ga]19 (corresponding to 0.15 μg of peptide) in 100 μL PBS into the tail vein. Non-specific tissue accumulation of the radioligand was determined by coinjection of an excess of cold competitor (20 μg Tyr^3-octreotide/mouse). At different time points after radioligand injection (30 and 60 min p.i.) mice (n=5 per time point; n=3 for blocking study at 60 min p.i.) were sacrificed and dissected. The organs of interest were removed, weighed and counted in a […] (Wallach, Turku, Finland). Data are expressed as percent injected dose per gram tissue (% iD/g).

[1] = test system: AR42J tumor bearing nude mice; experiment: in vivo; conditions: mouse
Method: as §1, §2

[2] = blood concentration of the radioligand

Structure (SMILES): CC(=NOCC(=O)N[C@H](Cc1ccccc1)C(=O)N[C@H]1CSSC[C@@H](C(=O)N[C@H](C(=O)O)[C@@H](C)O)NC(=O)[C@H]([C@@H](C)O)NC(=O)[C@H](CCCCN)NC(=O)[C@@H](Cc2c[nH]c3ccccc23)NC(=O)[C@H](Cc2ccc(O)cc2)NC1=O)c1ccc(C(C(=O)O)N2CCN(CC(=O)O)CCN(CC(=O)O)CCN(CC(=O)O)CC2)cc1 (stereo partly shown) [[^68Ga]19, metal not drawn]
- tissue uptake at 0.5 h (in vivo; [2]): 2.37 ± 0.35 %ID/g
- tissue uptake at 1 h (in vivo; [2]): 1.71 ± 0.17 %ID/g
- tissue uptake at 0.5 h (in vivo; kidney accumulation): 20 ± 2.4 %ID/g
- tissue uptake at 1 h (in vivo; kidney accumulation): 11.9 ± 1.9 %ID/g
- tissue uptake at 0.5 h (in vivo; tumor accumulation): 7.73 ± 1.52 %ID/g
- tissue uptake at 1 h (in vivo; tumor accumulation): 7.46 ± 1.3 %ID/g
- tumor/organ ratios (change) [1]: increasing tumor/organ ratios
